Laboratory results published in the supplement of paper PMC10724198.
± gives the standard deviation of the averaged measurements.

Legend:
Saccharomyces cerevisiae [1] = experiment: protein stability index of tFT-peptide fusion (C-terminal peptide) (PSI (0-1 scale)); higher = more stable (slower turnover)
Experimental: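 MPS profiling in S. cerevisiae of the tFT-X12 degron library: putative degron peptides plus stable controls, 12 aa, fused to the C-terminus of a sfGFP-mCherry timer. Cells are FACS-sorted into 8 mCherry/sfGFP bins and deep-sequenced. PSI runs from 0 (unstable) to 1 (stable). Backgrounds are wild type, das1Δ and doa10Δ at 30 °C, and wild type, das1Δ, cdc34-1 and cdc53-1 at 37 °C; 2-3 technical replicates each.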

Saccharomyces cerevisiae [2] = experiment: as above; conditions: genetic background: wild type; temperature: 30 C
[3] = genetic background: cdc34-1, temperature: 37 C
[4] = genetic background: cdc53-1, temperature: 37 C
[5] = genetic background: das1 deletion, temperature: 30 C
[6] = genetic background: das1 deletion, temperature: 37 C
[7] = genetic background: doa10 deletion, temperature: 30 C
[8] = genetic background: wild type, temperature: 30 C
[9] = genetic background: wild type, temperature: 37 C
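Also: PSI is a weighted mean of sequencing reads over stability bins, variants kept only with over 10 reads, mCherry proximal and sfGFP distal, peptide attached via GGGS linker.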

| Sequence | protein stability index (Saccharomyces cerevisiae [1]; [3]) | protein stability index (Saccharomyces cerevisiae [1]; [4]) | protein stability index (Saccharomyces cerevisiae [1]; [5]) | protein stability index (Saccharomyces cerevisiae [1]; [6]) | protein stability index (Saccharomyces cerevisiae [1]; [7]) | protein stability index (Saccharomyces cerevisiae [1]; [8]) | protein stability index (Saccharomyces cerevisiae [1]; [9]) | protein stability index (Saccharomyces cerevisiae [2]) |
| --- | --- | --- | --- | --- | --- | --- | --- | --- |
| VWSSSYVPLGVY | 0.319 ± 0.015 | 0.326 ± 0.066 | 0.275 ± 0.044 | 0.443 ± 0.0067 | 0.231 ± 0.015 | 0.271 ± 0.033 | 0.384 ± 0.013 | 0.398 ± 0.044 |
| VWWTLWRVHMLG | 0.583 ± 0.028 | 0.644 ± 0.0072 | 0.592 ± 0.018 | 0.7151 ± 0.0031 | 0.106 ± 0.03 | 0.142 ± 0.021 | 0.218 ± 0.026 | 0.243 ± 0.024 |
| VYCLFLPLGVAF | 0.115 ± 0.038 | 0.175 ± 0.072 | 0.184 ± 0.02 | 0.248 ± 0.0082 | 0.146 ± 0.016 | 0.171 ± 0.022 | 0.207 ± 0.026 | 0.27 ± 0.027 |
| VYCLVLFFSQWC | 0.42 ± 0.03 | 0.484 ± 0.011 | 0.365 ± 0.025 | 0.543 ± 0.016 | 0.353 ± 0.013 | 0.351 ± 0.016 | 0.509 ± 0.013 | 0.452 ± 0.011 |
| VYFPRLLVRVSW | 0.4489 ± 0.0015 | 0.472 ± 0.017 | 0.392 ± 0.029 | 0.508 ± 0.0082 | 0.436 ± 0.0082 | 0.377 ± 0.043 | 0.4787 ± 0.00097 | 0.407 ± 0.095 |
| WAIMGLIIFCLF | 0.309 ± 0.0083 | 0.363 ± 0.031 | 0.3 ± 0.035 | 0.438 ± 0.015 | 0.222 ± 0.0086 | 0.244 ± 0.022 | 0.353 ± 0.012 | 0.329 ± 0.022 |
| WGEAGRPAGRGA | 0.703 ± 0.032 | 0.758 ± 0.026 | 0.631 ± 0.007 | 0.745 ± 0.018 | 0.644 ± 0.017 | 0.6506 ± 0.004 | 0.73024 ± 1.3e-05 | 0.688 ± 0.039 |
| WGFLSVVCLSGV | 0.501 ± 0.029 | 0.5235 ± 0.0052 | 0.4 ± 0.024 | 0.533 ± 0.015 | 0.384 ± 0.035 | 0.398 ± 0.013 | 0.522 ± 0.0023 | 0.458 ± 0.038 |
| WGLGWRGALVAV | 0.417 ± 0.0089 | 0.42 ± 0.017 | 0.321 ± 0.033 | 0.4845 ± 0.0034 | 0.269 ± 0.0084 | 0.324 ± 0.027 | 0.454 ± 0.0095 | 0.385 ± 0.062 |
| WGLPVGVESSGG | 0.712 ± 0.03 | 0.761 ± 0.021 | 0.648 ± 0.028 | 0.761 ± 0.0095 | 0.64 ± 0.012 | 0.661 ± 0.032 | 0.733 ± 0.015 | 0.732 ± 0.03 |
| WGRFFWGCGVWV | 0.631 ± 0.07 | 0.7128 ± 0.0035 | 0.6 ± 0.016 | 0.725 ± 0.0095 | 0.438 ± 0.016 | 0.463 ± 0.032 | 0.644 ± 0.031 | 0.55 ± 0.074 |
| WGRGYRWRIWDV | 0.708 ± 0.068 | 0.772 ± 0.018 | 0.657 ± 0.015 | 0.7901 ± 0.0042 | 0.396 ± 0.01 | 0.433 ± 0.0092 | 0.656 ± 0.034 | 0.546 ± 0.093 |
| WIGCTVKIASLY | 0.619 ± 0.015 | 0.67 ± 0.018 | 0.558 ± 0.03 | 0.693 ± 0.012 | 0.219 ± 0.021 | 0.261 ± 0.019 | 0.49113 ± 0.00019 | 0.437 ± 0.036 |
| WLCLFRFLGVAY | 0.18 ± 0.024 | 0.245 ± 0.04 | 0.218 ± 0.033 | 0.3 ± 0.0097 | 0.185 ± 0.005 | 0.216 ± 0.012 | 0.2749 ± 0.0024 | 0.345 ± 0.018 |
| WLMVGVDWRFVG | 0.436 ± 0.0056 | 0.6254 ± 0.0043 | 0.57 ± 0.024 | 0.7086 ± 0.0033 | 0.0725 ± 0.015 | 0.08 ± 0.012 | 0.0927 ± 0.0084 | 0.138 ± 0.046 |
| WLSWATRRIVLG | 0.552 ± 0.037 | 0.611 ± 0.019 | 0.57 ± 0.02 | 0.605 ± 0.018 | 0.384 ± 0.008 | 0.401 ± 0.013 | 0.527 ± 0.012 | 0.47 ± 0.031 |
| WLWYSPIAFTAL | 0.632 ± 0.014 | 0.764 ± 0.041 | 0.64 ± 0.016 | 0.778 ± 0.02 | 0.11 ± 0.019 | 0.107 ± 0.0089 | 0.163 ± 0.0073 | 0.179 ± 0.015 |
| WPRSFSIILLSR | 0.322 ± 0.036 | 0.3371 ± 0.002 | 0.265 ± 0.029 | 0.4355 ± 0.0031 | 0.361 ± 0.015 | 0.288 ± 0.025 | 0.419 ± 0.0043 | 0.285 ± 0.027 |
| WRMRCGLIIGLV | 0.0313 ± 0.0029 | 0.0521 ± 0.023 | 0.155 ± 0.028 | 0.164 ± 0.0025 | 0.1 ± 0.025 | 0.134 ± 0.026 | 0.125 ± 0.018 | 0.183 ± 0.032 |
| WRVFRPSLRLFA | 0.531 ± 0.04 | 0.61 ± 0.018 | 0.467 ± 0.017 | 0.598 ± 0.012 | 0.287 ± 0.0051 | 0.33 ± 0.021 | 0.507 ± 0.036 | 0.393 ± 0.051 |

| Sequence | protein stability index (Saccharomyces cerevisiae [1]; [3]) | protein stability index (Saccharomyces cerevisiae [1]; [4]) | protein stability index (Saccharomyces cerevisiae [1]; [5]) | protein stability index (Saccharomyces cerevisiae [1]; [6]) | protein stability index (Saccharomyces cerevisiae [1]; [7]) | protein stability index (Saccharomyces cerevisiae [1]; [8]) | protein stability index (Saccharomyces cerevisiae [1]; [9]) | protein stability index (Saccharomyces cerevisiae [2]) |
| --- | --- | --- | --- | --- | --- | --- | --- | --- |
| WVFMVILLVFLV | 0.216 ± 0.0073 | 0.268 ± 0.017 | 0.257 ± 0.021 | 0.33 ± 0.038 | 0.28 ± 0.0053 | 0.228 ± 0.022 | 0.315 ± 0.014 | 0.3041 ± 0.0026 |
| YAFYLFSRILAA | 0.232 ± 0.0091 | 0.302 ± 0.075 | 0.236 ± 0.025 | 0.3486 ± 0.0015 | 0.1792 ± 0.0014 | 0.208 ± 0.016 | 0.285 ± 0.013 | 0.2795 ± 0.00053 |
| YALVQHRWVYYF | 0.4 ± 0.0056 | 0.633 ± 0.061 | 0.625 ± 0.019 | 0.724 ± 0.011 | 0.0888 ± 0.011 | 0.0761 ± 0.011 | 0.0856 ± 0.0031 | 0.119 ± 0.031 |
| YCFLSWVLMCCF | 0.457 ± 0.019 | 0.4613 ± 0.0037 | 0.399 ± 0.018 | 0.438 ± 0.011 | 0.421 ± 0.025 | 0.386 ± 0.0065 | 0.42 ± 0.0059 | 0.406 ± 0.022 |
| YFNGLLPLVLVF | 0.0299 ± 0.0068 | 0.0434 ± 0.004 | 0.074 ± 0.01 | 0.0623 ± 0.018 | 0.0659 ± 0.018 | 0.0601 ± 0.0082 | 0.0517 ± 0.028 | 0.0927 ± 0.049 |
| YHFSLFFPLSLP | 0.685 ± 0.022 | 0.73 ± 0.028 | 0.607 ± 0.015 | 0.711 ± 0.0088 | 0.378 ± 0.0088 | 0.383 ± 0.017 | 0.568 ± 0.032 | 0.482 ± 0.0063 |
| YLAGPLARLRKF | 0.68 ± 0.046 | 0.7579 ± 0.0021 | 0.752 ± 0.027 | 0.738 ± 0.0093 | 0.716 ± 0.037 | 0.749 ± 0.041 | 0.735 ± 0.013 | 0.751 ± 0.037 |
| YLDRFIFIYNIF | 0.603 ± 0.034 | 0.6848 ± 0.0062 | 0.599 ± 0.048 | 0.707 ± 0.031 | 0.189 ± 0.0069 | 0.202 ± 0.017 | 0.367 ± 0.023 | 0.26 ± 0.025 |
| YLGLSAVAILWM | 0.538 ± 0.041 | 0.533 ± 0.02 | 0.414 ± 0.029 | 0.563 ± 0.014 | 0.381 ± 0.011 | 0.412 ± 0.018 | 0.529 ± 0.011 | 0.4784 ± 0.0037 |
| YLVFSLCSYRFL | 0.596 ± 0.012 | 0.677 ± 0.022 | 0.511 ± 0.019 | 0.653 ± 0.011 | 0.36 ± 0.011 | 0.374 ± 0.029 | 0.549 ± 0.016 | 0.457 ± 0.033 |
| YNRKQEAAQKAN | 0.671 ± 0.02 | 0.735 ± 0.029 | 0.617 ± 0.0072 | 0.71085 ± 0.00017 | 0.363 ± 0.025 | 0.396 ± 0.018 | 0.606 ± 0.011 | 0.486 ± 0.14 |
| YNTRLCTFSCML | 0.772 ± 0.013 | 0.8079 ± 0.007 | 0.668 ± 0.033 | 0.7881 ± 0.0015 | 0.657 ± 0.025 | 0.698 ± 0.021 | 0.772 ± 0.011 | 0.755 ± 0.0089 |
| YPCRLFVRSLLA | 0.442 ± 0.05 | 0.436 ± 0.031 | 0.369 ± 0.023 | 0.498 ± 0.0098 | 0.205 ± 0.0068 | 0.235 ± 0.022 | 0.375 ± 0.019 | 0.32 ± 0.051 |
| YRGFFIGKLMLV | 0.488 ± 0.04 | 0.548 ± 0.03 | 0.482 ± 0.035 | 0.63 ± 0.013 | 0.112 ± 0.017 | 0.113 ± 0.018 | 0.216 ± 0.081 | 0.201 ± 0.013 |
| YRKKIKNIWLRW | 0.442 ± 0.017 | 0.428 ± 0.026 | 0.475 ± 0.033 | 0.6017 ± 0.0025 | 0.444 ± 0.058 | 0.322 ± 0.033 | 0.535 ± 0.0073 | 0.473 ± 0.041 |
| YRLTIVWFFLAL | 0.434 ± 0.028 | 0.519 ± 0.006 | 0.354 ± 0.026 | 0.609 ± 0.034 | 0.3504 ± 0.002 | 0.349 ± 0.012 | 0.513 ± 0.011 | 0.427 ± 0.055 |
| YSVERCLFVSVA | 0.422 ± 0.025 | 0.4443 ± 0.0013 | 0.352 ± 0.034 | 0.502 ± 0.013 | 0.287 ± 0.02 | 0.314 ± 0.01 | 0.443 ± 0.018 | 0.414 ± 0.034 |
| YVASSWRHCFII | 0.5016 ± 0.0016 | 0.657 ± 0.039 | 0.658 ± 0.022 | 0.724 ± 0.039 | 0.145 ± 0.012 | 0.152 ± 0.014 | 0.269 ± 0.023 | 0.221 ± 0.039 |
| YVLLSRVSVFSA | 0.446 ± 0.0078 | 0.464 ± 0.031 | 0.378 ± 0.019 | 0.533 ± 0.0079 | 0.297 ± 0.011 | 0.329 ± 0.037 | 0.501 ± 0.028 | 0.421 ± 0.035 |
